B1: Hammerhead Ribozyme (parent)
chain: ACCGGAUGUGCUUUCCGGUCUGAUGAGUCCGUGAGGACGAAACAG

Variants of: B1
Test: self-cleavage, relative activity (ratio to wild type); higher = more cleavage; co-transcriptional

Row | Variant | self-cleavage
1 | ACCGGAUGUGCUUUCCGGUCUGAUGAGUCCGUCAGGACGAAACUG | 0.512
2 | ACCGGAUGUGCUUUCCGGUCUGAUGAGUCCGUCAGGACGAAACGG | 1.13
3 | ACCGGAUGUGCUUUCCGGUCUGAUGAGUCCGUCAGGACGAAACCG | 0.533
4 | ACCGGAUGUGCUUUCCGGUCUGAUGAGUCCGUCAGGAUGAAACAG | 1.12
5 | ACCGGAUGUGCUUUCCGGUCUGAUGAGUCCGUCAGGAGGAAACAG | 0.567
6 | ACCGGAUGUGCUUUCCGGUCUGAUGAGUCCGUCAGGAAGAAACAG | 0.493
7 | ACCGGAUGUGCUUUCCGGUCUGAUGAGUCCGUCAGGACGAAAUAG | 0.308
8 | ACCGGAUGUGCUUUCCGGUCUGAUGAGUCCGUCAGGACGAAAGAG | 0.28
9 | ACCGGAUGUGCUUUCCGGUCUGAUGAGUCCGUCAGGACGAAAAAG | 0.314
10 | ACCGGAUGUGCUUUCCGGUCUGAUGAGUCCGUAAGGACAAAACAG | 0.429
11 | ACCGGAUGUGCUUUCCGGUCUGAUGAGUCCGUAAGGACCAAACAG | 0.503
12 | ACCGGAUGUGCUUUCCGGUCUGAUGAGUCCGUAAGGACUAAACAG | 0.344
13 | ACCGGAUGUGCUUUCCGGUCUGAUGAGUCCGUAAGGACGAAACCG | 0.673
14 | ACCGGAUGUGCUUUCCGGUCUGAUGAGUCCGUAAGGACGAAACGG | 1.59
15 | ACCGGAUGUGCUUUCCGGUCUGAUGAGUCCGUAAGGACGAAACUG | 0.98
16 | ACCGGAUGUGCUUUCCGGUCUGAUGAGUCCGUAAGGACGAAAUAG | 0.816
17 | ACCGGAUGUGCUUUCCGGUCUGAUGAGUCCGUAAGGACGAAAGAG | 0.371
18 | ACCGGAUGUGCUUUCCGGUCUGAUGAGUCCGUAAGGACGAAAAAG | 0.369
19 | ACCGGAUGUGCUUUCCGGUCUGAUGAGUCCGUAACGACGAAACAG | 0.787

Row | Variant | self-cleavage
20 | ACCGGAUGUGCUUUCCGGUCUGAUGAGUCCGUAAUGACGAAACAG | 0.866
21 | ACCGGAUGUGCUUUCCGGUCUGAUGAGUCCGUAAAGACGAAACAG | 0.825
22 | ACCGGAUGUGCUUUCCGGUCUGAUGAGUCCGUAAGGACGAGACAG | 0.384
23 | ACCGGAUGUGCUUUCCGGUCUGAUGAGUCCGUAAGGACGACACAG | 0.465
24 | ACCGGAUGUGCUUUCCGGUCUGAUGAGUCCGUAAGGACGAUACAG | 0.428
25 | ACCGGAUGUGCUUUCCGGUCUGAUGAGUCCGUCAGGACGGAACAG | 0.339
26 | ACCGGAUGUGCUUUCCGGUCUGAUGAGUCCGUCAGGACGUAACAG | 0.409
27 | ACCGGAUGUGCUUUCCGGUCUGAUGAGUCCGUCAGGACGCAACAG | 0.566
28 | ACCGGAUGUGCUUUCCGGUCUGAUGAGUCCGUCAGGACGAACCAG | 0.268
29 | ACCGGAUGUGCUUUCCGGUCUGAUGAGUCCGUCAGGACGAAGCAG | 0.346
30 | ACCGGAUGUGCUUUCCGGUCUGAUGAGUCCGUCAGGACGAAUCAG | 0.28
31 | ACCGGAUGUGCUUUCCGGUCUGAUGAGUCCGUAAGGACGAAACAU | 0.955
32 | ACCGGAUGUGCUUUCCGGUCUGAUGAGUCCGUAAGGACGAAACAA | 0.794
33 | ACCGGAUGUGCUUUCCGGUCUGAUGAGUCCGUAAGGACGAAACAC | 0.873
34 | ACCGGAUGUGCUUUCCGGUCUGAUGAGUCCGUAAGGACGGAACAG | 0.503
35 | ACCGGAUGUGCUUUCCGGUCUGAUGAGUCCGUAAGGACGCAACAG | 0.792
36 | ACCGGAUGUGCUUUCCGGUCUGAUGAGUCCGUAAGGACGUAACAG | 0.525
37 | ACCGGAUGUGCUUUCCGGUCUGAUGAGUCCGUCAGGUCGAAACAG | 0.565
38 | ACCGGAUGUGCUUUCCGGUCUGAUGAGUCCGUCAGGGCGAAACAG | 0.619

Row | Variant | self-cleavage
39 | ACCGGAUGUGCUUUCCGGUCUGAUGAGUCCGUCAGGCCGAAACAG | 0.745
40 | ACCGGAUGUGCUUUCCGGUCUGAUGAGUCCGUAAGGAGGAAACAG | 0.854
41 | ACCGGAUGUGCUUUCCGGUCUGAUGAGUCCGUAAGGAAGAAACAG | 0.608
42 | ACCGGAUGUGCUUUCCGGUCUGAUGAGUCCGUAAGGAUGAAACAG | 0.995
43 | ACCGGAUGUGCUUUCCGGUCUGAUGAGUCCGUCUGGACGAAACAG | 1.33
44 | ACCGGAUGUGCUUUCCGGUCUGAUGAGUCCGUCCGGACGAAACAG | 0.801
45 | ACCGGAUGUGCUUUCCGGUCUGAUGAGUCCGUCGGGACGAAACAG | 1.19
46 | ACCGGAUGUGCUUUCCGGUCUGAUGAGUCCGUAAGGUCGAAACAG | 0.727
47 | ACCGGAUGUGCUUUCCGGUCUGAUGAGUCCGUAAGGGCGAAACAG | 1.28
48 | ACCGGAUGUGCUUUCCGGUCUGAUGAGUCCGUCAGGACGAAACAG | 0.997
49 | ACCGGAUGUGCUUUCCGGUCUGAUGAGUCCGUAAGAACGAAACAG | 0.894
50 | ACCGGAUGUGCUUUCCGGUCUGAUGAGUCCGUAAGCACGAAACAG | 0.58
51 | ACCGGAUGUGCUUUCCGGUCUGAUGAGUCCGUAAGUACGAAACAG | 0.613
52 | ACCGGAUGUGCUUUCCGGUCUGAUGAGUCCGUAAGGACGAAUCAG | 0.27
53 | ACCGGAUGUGCUUUCCGGUCUGAUGAGUCCGUAAGGACGAACCAG | 0.394
54 | ACCGGAUGUGCUUUCCGGUCUGAUGAGUCCGUAAGGACGAAGCAG | 0.256
55 | ACCGGAUGUGCUUUCCGGUCUGAUGAGUCCGUCAGGACGAGACAG | 0.273
56 | ACCGGAUGUGCUUUCCGGUCUGAUGAGUCCGUCAGGACGAUACAG | 0.459
57 | ACCGGAUGUGCUUUCCGGUCUGAUGAGUCCGUCAGGACGACACAG | 0.432

— the RNAGym collection of RNA variant scans (doi:10.7554/elife.80360)
